{"source": "patent US20070270364", "biological_target": "GST-p68 fusion polypeptides"}
{"protein": "histone acetyltransferase (HAT) region of p300 (protein) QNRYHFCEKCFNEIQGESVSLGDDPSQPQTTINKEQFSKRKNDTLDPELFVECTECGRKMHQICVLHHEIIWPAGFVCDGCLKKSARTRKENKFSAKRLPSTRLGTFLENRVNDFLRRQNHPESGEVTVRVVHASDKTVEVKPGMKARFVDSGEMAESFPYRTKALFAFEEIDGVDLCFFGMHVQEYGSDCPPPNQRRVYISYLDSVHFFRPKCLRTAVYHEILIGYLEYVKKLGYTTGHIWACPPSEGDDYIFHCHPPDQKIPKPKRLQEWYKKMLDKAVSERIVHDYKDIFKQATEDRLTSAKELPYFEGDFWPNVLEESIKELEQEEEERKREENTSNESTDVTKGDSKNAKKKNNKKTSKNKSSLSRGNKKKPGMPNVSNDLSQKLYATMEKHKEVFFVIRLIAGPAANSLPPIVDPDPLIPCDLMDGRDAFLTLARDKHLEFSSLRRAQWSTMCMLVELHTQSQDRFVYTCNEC", "values": [{"measurement": "in vitro 14C-acetylation of GST-p68 fusion polypeptides (autoradiogram)", "result": "p300 indeed acetylated p68 polypeptides exclusively within its N-terminal 80 amino acids"}]}
